Data: US20160106861A1, “AXL ANTIBODY-DRUG CONJUGATE AND ITS USE FOR THE TREATMENT OF CANCER” (PIERRE FABRE MEDICAMENT, priority 2013, published 2016)

Tested on: MCF7 human breast tumor cell line
Assay: FACS binding on MCF7 cells
Protocol: For cell surface binding studies, two fold serial dilutions of a 10 μg/ml (6.66 10^−8 M) primary antibody solution (1613F12, MAB154 or mIgG1 isotype control 9G4 Mab) are prepared and are applied on 2·10^5 cells for 20 min at 4° C. After 3 washes in phosphate-buffered saline (PBS) supplemented with 1% BSA and 0.01% NaN3, cells were incubated with secondary antibody Goat anti-mouse Alexa 488 ( 1/500° dilution) for 20 minutes at 4° C. After 3 additional washes in PBS supplemented with 1% BSA and […], cells were analyzed by FACS (Facscalibur, Becton-Dickinson). At least 5000 cells were assessed to calculate the mean value of fluorescence intensity.
1613F12 dose response curves were prepared. MFIs obtained using the various human tumor cells were then analysed with Prism software.

B1: m1613F12 (murine 1613F12, hybridoma CNCM I-4505) (antibody, V domains shown)
VH: EVHLQQSGAELVKPGASVKLSCTASGFNIRDTYIHWVKQRPEQGLEWIGRLDPANGHTKYGPNFQGRATMTSDTSSNTAYLQLSSLTSEDTAVYYCARGAYYYGSSGLFYFDYWGQGTTLSVSS
VL: DVQITQSPSYLATSPGETITINCRASKSISKYLAWYQEKPGKTNKLLIYSGSTLQSGVPSRFSGSGSGTDFTLTISSLEPEDFAMYFCQQHHEYPLTFGAGTELELK
notes: Murine monoclonal antibody; also called Axl antibody
- binding of Axl receptor on MCF7 (FACS): No binding of Axl receptor was observed
